Measured values reported in US20050287638A1.

Molecular target: recombinant 190 kDa hHARE expressed in Flp-In 293 cells (human)

endocytosis of ^125I-HA by 190hHARE Flp-In 293 cell lines at 37° C. (% of the control value): 103
Substance: mouse IgG (polyclonal serum or antibody)
